Tested on: Escherichia coli TOP10
Assay: shrunken log2 fold change of peptide-encoding DNA abundance (4.5 h post-induction vs induction); higher = less antimicrobial activity (less host growth inhibition)
Conditions: time post-induction: 4.5 h; library: site-saturation at positions 5, 18, 19, 20
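Note: peptides expressed intracellularly from a pBAD plasmid library in pooled LB shake-flask culture, induced with 0.3% L-arabinose, DNA abundance read by NGS, three biological replicates, DESeq2 with apeglm shrinkage.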

Compared with RRIRVRPPRLPRPRPRPILFPRP, RRIRVRPPRLPRPRPRPILHPRP is higher in “shrunken log2 fold change” value: -0.395 for the first, 1.12 for the second.

Compared with RRIRVRPPRLPRPRPRPILLPRP, RRIRVRPPRLPRPRPRPILNPRP is higher in “shrunken log2 fold change” value: -0.815 for the first, -0.287 for the second.

First: RRIRVRPPRLPRPRPRPIMGPRP
Second: RRIRVRPPRLPRPRPRPIMPPRP
The “shrunken log2 fold change” value of the first is higher: 0.0179 for the first, -0.535 for the second.

RRIRVRPPRLPRPRPRPIMVPRP and RRIRVRPPRLPRPRPRPINGPRP are within 0.2 log units of each other in “shrunken log2 fold change” value: -0.219 for the first, -0.17 for the second.

First: RRIRVRPPRLPRPRPRPINNPRP
Second: RRIRVRPPRLPRPRPRPIQDPRP
The “shrunken log2 fold change” value of the first is lower: -0.684 for the first, -0.134 for the second.

RRIRVRPPRLPRPRPRPIQYPRP and RRIRVRPPRLPRPRPRPIRDPRP are within 0.2 log units of each other in “shrunken log2 fold change” value: 0.0111 for the first, 0.0875 for the second.

RRIRVRPPRLPRPRPRPISDPRP and RRIRVRPPRLPRPRPRPITNPRP are within 0.2 log units of each other in “shrunken log2 fold change” value: -0.0883 for the first, -0.219 for the second.

Compared with RRIRVRPPRLPRPRPRPITRPRP, RRIRVRPPRLPRPRPRPIVWPRP is lower in “shrunken log2 fold change” value: -0.0188 for the first, -0.328 for the second.

RRIRVRPPRLPRPRPRPKADPRP and RRIRVRPPRLPRPRPRPKANPRP are within 0.2 log units of each other in “shrunken log2 fold change” value: 0.0681 for the first, 0.103 for the second.

First: RRIRVRPPRLPRPRPRPKCNPRP
Second: RRIRVRPPRLPRPRPRPKCWPRP
The “shrunken log2 fold change” value of the first is lower: -0.181 for the first, 0.313 for the second.

Compared with RRIRVRPPRLPRPRPRPKDDPRP, RRIRVRPPRLPRPRPRPKDYPRP is lower in “shrunken log2 fold change” value: 0.0252 for the first, -0.366 for the second.

RRIRVRPPRLPRPRPRPKEFPRP and RRIRVRPPRLPRPRPRPKFDPRP are within 0.2 log units of each other in “shrunken log2 fold change” value: 0.0951 for the first, 0.21 for the second.

RRIRVRPPRLPRPRPRPKFIPRP and RRIRVRPPRLPRPRPRPKFQPRP are within 0.2 log units of each other in “shrunken log2 fold change” value: -0.286 for the first, -0.274 for the second.

First: RRIRVRPPRLPRPRPRPKGKPRP
Second: RRIRVRPPRLPRPRPRPKHMPRP
The “shrunken log2 fold change” value of the first is higher: 0.102 for the first, -0.518 for the second.

Compared with RRIRVRPPRLPRPRPRPKIKPRP, RRIRVRPPRLPRPRPRPKILPRP is higher in “shrunken log2 fold change” value: -0.303 for the first, -0.0923 for the second.

Compared with RRIRVRPPRLPRPRPRPKKWPRP, RRIRVRPPRLPRPRPRPKLQPRP is higher in “shrunken log2 fold change” value: -0.00649 for the first, 0.32 for the second.

First: RRIRVRPPRLPRPRPRPKNHPRP
Second: RRIRVRPPRLPRPRPRPKNNPRP
The “shrunken log2 fold change” value of the first is higher: -0.18 for the first, -0.406 for the second.

Compared with RRIRVRPPRLPRPRPRPKQNPRP, RRIRVRPPRLPRPRPRPKRNPRP is lower in “shrunken log2 fold change” value: 0.385 for the first, 0.166 for the second.

RRIRVRPPRLPRPRPRPKTAPRP and RRIRVRPPRLPRPRPRPKTFPRP are within 0.2 log units of each other in “shrunken log2 fold change” value: 0.0988 for the first, -0.0753 for the second.

First: RRIRVRPPRLPRPRPRPKVLPRP
Second: RRIRVRPPRLPRPRPRPKVTPRP
The “shrunken log2 fold change” value of the first is lower: -0.51 for the first, 0.0458 for the second.

Compared with RRIRVRPPRLPRPRPRPLAVPRP, RRIRVRPPRLPRPRPRPLCDPRP is lower in “shrunken log2 fold change” value: 0.33 for the first, -0.108 for the second.

First: RRIRVRPPRLPRPRPRPLDGPRP
Second: RRIRVRPPRLPRPRPRPLDLPRP
The “shrunken log2 fold change” value of the first is lower: -0.267 for the first, -0.0307 for the second.

RRIRVRPPRLPRPRPRPLDSPRP and RRIRVRPPRLPRPRPRPLDTPRP are within 0.2 log units of each other in “shrunken log2 fold change” value: -0.19 for the first, -0.257 for the second.

RRIRVRPPRLPRPRPRPLEIPRP and RRIRVRPPRLPRPRPRPLEQPRP are within 0.2 log units of each other in “shrunken log2 fold change” value: -0.073 for the first, -0.0372 for the second.

First: RRIRVRPPRLPRPRPRPLFVPRP
Second: RRIRVRPPRLPRPRPRPLGLPRP
The “shrunken log2 fold change” value of the first is lower: -0.175 for the first, 0.122 for the second.

First: RRIRVRPPRLPRPRPRPLGNPRP
Second: RRIRVRPPRLPRPRPRPLGWPRP
The “shrunken log2 fold change” value of the first is lower: -0.424 for the first, 0.467 for the second.

Going from RRIRVRPPRLPRPRPRPLILPRP to RRIRVRPPRLPRPRPRPLLAPRP, the “shrunken log2 fold change” value rises from -0.409 to 0.343.

RRIRVRPPRLPRPRPRPLLHPRP and RRIRVRPPRLPRPRPRPLMCPRP are within 0.2 log units of each other in “shrunken log2 fold change” value: -0.114 for the first, -0.268 for the second.

Going from RRIRVRPPRLPRPRPRPLMFPRP to RRIRVRPPRLPRPRPRPLQRPRP, the “shrunken log2 fold change” value rises from -0.449 to -0.0358.

RRIRVRPPRLPRPRPRPLRAPRP and RRIRVRPPRLPRPRPRPLRVPRP are within 0.2 log units of each other in “shrunken log2 fold change” value: 0.719 for the first, 0.543 for the second.

First: RRIRVRPPRLPRPRPRPLTKPRP
Second: RRIRVRPPRLPRPRPRPLTWPRP
The “shrunken log2 fold change” value of the first is higher: 0.044 for the first, -0.195 for the second.

RRIRVRPPRLPRPRPRPLVDPRP and RRIRVRPPRLPRPRPRPLVHPRP are within 0.2 log units of each other in “shrunken log2 fold change” value: -0.196 for the first, -0.145 for the second.

Going from RRIRVRPPRLPRPRPRPLVPPRP to RRIRVRPPRLPRPRPRPLYHPRP, the “shrunken log2 fold change” value falls from -0.0493 to -0.677.

Going from RRIRVRPPRLPRPRPRPLYLPRP to RRIRVRPPRLPRPRPRPLYMPRP, the “shrunken log2 fold change” value rises from -0.507 to -0.128.

Going from RRIRVRPPRLPRPRPRPLYSPRP to RRIRVRPPRLPRPRPRPMCAPRP, the “shrunken log2 fold change” value rises from -0.343 to 0.137.

RRIRVRPPRLPRPRPRPMDNPRP and RRIRVRPPRLPRPRPRPMDWPRP are within 0.2 log units of each other in “shrunken log2 fold change” value: 0.0397 for the first, -0.138 for the second.

RRIRVRPPRLPRPRPRPMEQPRP and RRIRVRPPRLPRPRPRPMFGPRP are within 0.2 log units of each other in “shrunken log2 fold change” value: -0.033 for the first, 0.00478 for the second.

First: RRIRVRPPRLPRPRPRPMFLPRP
Second: RRIRVRPPRLPRPRPRPMFWPRP
The “shrunken log2 fold change” value of the first is lower: -0.557 for the first, 0.285 for the second.

First: RRIRVRPPRLPRPRPRPMILPRP
Second: RRIRVRPPRLPRPRPRPMLLPRP
The “shrunken log2 fold change” value of the first is higher: -0.0833 for the first, -0.322 for the second.

Compared with RRIRVRPPRLPRPRPRPMLVPRP, RRIRVRPPRLPRPRPRPMNPPRP is lower in “shrunken log2 fold change” value: 0.0916 for the first, -0.421 for the second.

First: RRIRVRPPRLPRPRPRPMNSPRP
Second: RRIRVRPPRLPRPRPRPMNVPRP
The “shrunken log2 fold change” value of the first is lower: -0.675 for the first, -0.0915 for the second.

First: RRIRVRPPRLPRPRPRPMPKPRP
Second: RRIRVRPPRLPRPRPRPMPLPRP
The “shrunken log2 fold change” value of the first is higher: 0.0271 for the first, -0.348 for the second.

First: RRIRVRPPRLPRPRPRPMPNPRP
Second: RRIRVRPPRLPRPRPRPMPPPRP
The “shrunken log2 fold change” value of the first is lower: -0.116 for the first, 0.44 for the second.

RRIRVRPPRLPRPRPRPMPYPRP and RRIRVRPPRLPRPRPRPMQNPRP are within 0.2 log units of each other in “shrunken log2 fold change” value: 0.122 for the first, 0.111 for the second.

First: RRIRVRPPRLPRPRPRPMQPPRP
Second: RRIRVRPPRLPRPRPRPMQSPRP
The “shrunken log2 fold change” value of the first is lower: -0.0152 for the first, 0.292 for the second.

First: RRIRVRPPRLPRPRPRPMQTPRP
Second: RRIRVRPPRLPRPRPRPMRPPRP
The “shrunken log2 fold change” value of the first is lower: 0.00859 for the first, 0.544 for the second.

Compared with RRIRVRPPRLPRPRPRPMSAPRP, RRIRVRPPRLPRPRPRPMTFPRP is lower in “shrunken log2 fold change” value: 0.262 for the first, -0.0219 for the second.

First: RRIRVRPPRLPRPRPRPMTHPRP
Second: RRIRVRPPRLPRPRPRPMTKPRP
The “shrunken log2 fold change” value of the first is lower: -0.352 for the first, 0.0648 for the second.

RRIRVRPPRLPRPRPRPMTNPRP and RRIRVRPPRLPRPRPRPMTSPRP are within 0.2 log units of each other in “shrunken log2 fold change” value: -0.256 for the first, -0.128 for the second.

Going from RRIRVRPPRLPRPRPRPMTYPRP to RRIRVRPPRLPRPRPRPMVLPRP, the “shrunken log2 fold change” value rises from -0.494 to -0.19.

Going from RRIRVRPPRLPRPRPRPMVQPRP to RRIRVRPPRLPRPRPRPMWGPRP, the “shrunken log2 fold change” value falls from 0.159 to -0.174.

RRIRVRPPRLPRPRPRPMWIPRP and RRIRVRPPRLPRPRPRPMYHPRP are within 0.2 log units of each other in “shrunken log2 fold change” value: 0.00541 for the first, -0.0185 for the second.

Going from RRIRVRPPRLPRPRPRPNAHPRP to RRIRVRPPRLPRPRPRPNCHPRP, the “shrunken log2 fold change” value falls from 0.038 to -0.201.

RRIRVRPPRLPRPRPRPNDKPRP and RRIRVRPPRLPRPRPRPNDLPRP are within 0.2 log units of each other in “shrunken log2 fold change” value: -0.351 for the first, -0.31 for the second.

In the case of RRIRVRPPRLPRPRPRPNEHPRP, the “shrunken log2 fold change” value was -0.00876.

From the supplement of paper PMC9112550, “Optimization of the antimicrobial peptide Bac7 by deep mutational scanning” (BMC Biology, 2022)
